Consider 3 substances from publication PMC5512084.

For test [1], the target named is mononucleosome (calf thymus histone octamer assembled on 601 nucleosome positioning sequence DNA) (bovine (calf thymus)).
The target is the same in test [2]. In words: native gel or EMSA; 2 nM IRDYE-labeled mononucleosome with 50 bp of linker DNA on both ends, 2-fold dilution series of CHD enzyme; EMSA buffer (20 mM Tris HCl pH 8.0, 75 mM NaCl, 5 mM MgCl2), 30 min at 25 °C, 4% native PAGE.

Regarding “CHD6 (from UniProt Q8TD26 1-2715) (enzyme)”, in test [1], the Km of nucleosome-stimulated ATP hydrolysis (nucleosome concentration at half-maximal ATPase activation; mononucleosome with 50-bp linker DNA on both sides) was determined as 6 nM.

As to “CHD7 (from UniProt Q9P2D1 1-2997) (enzyme)”, in test [1], the Km of nucleosome-stimulated ATP hydrolysis (nucleosome concentration at half-maximal ATPase activation; mononucleosome with 50-bp linker DNA on both sides) stood at 6 nM. As for “CHD8 (from UniProt Q9HCK8 1-2581) (enzyme)”, in test [1], the Km of nucleosome-stimulated ATP hydrolysis (nucleosome concentration at half-maximal ATPase activation; mononucleosome with 50-bp linker DNA on both sides) is 55 nM. The substance further gave a fold affinity against the nucleosome with only one 100-bp DNA linker in test [2] of 2 fold.
